According to PMC8591511, “Flexible open conformation of the AP-3 complex explains its role in cargo recruitment at the Golgi” (The Journal of Biological Chemistry, 2021):

B3: Apl6 (β3-subunit of yeast AP-3) (natural protein, S. cerevisiae, UniProt P46682 1-809, looked up)
chain: MVDSIHRIASALDTAKVITREAAAVATSKLGESSYTYYSQNINPQQLVTLLNSRNSREVRDAMKRIISIMASDDDSIDVQLYFADVVKNITTNDTKVKRLIHLYLLRFAENDPNLTLLSINSLQKSLSDSNSELRCFALSALSDMKMSSLAPIILHTVKKLVTDPSAMVRGEVALAIIKLYRAGKNDYHEELLDILKELMADTDPKVISCAVLAYKECYADHLELLHGHFRRYCRIIKQLDSWSQSYLIELLIKYCKQYLPKPTVVDKSSEGSPRSCPLPDKYNEIEYPSYEVVNDPDLDLFLQSLNCLIYSSNPTVILSCCNALYQLASPLQMKNTKFIEALVRTVTMTENQGNKEMLLQAIHFLSILDQTLFLPYTKKFYVFPKDPIVASIWKIQILSTLINESNVKEIFKELKYYVASAHFPENVVIMAVKSLSRCGQLSTSWESHVMKWLIDHMESHNLSASVLDAYVNVIRMLVQKNPTKHLRIIFKLADLLTVQTSLADNARAGIVWLFGEIASIEFKICPDVLRRLIQNFSNEGPETRCQILVLSAKLLSYDIDNFKQAQVTGSEENNQNPPYYDFSGSRISQMYNAVLYLAKYDDEFDIRDRARMISSLFDSGKYEIVSLLLQAPKPTARSDDFIVSARLETHTPEIKEFFRMLPWNTEITEVGETGNDIREGAELKDYNKYKKSFSSQSFITNNSARSFTSSSNAKLTGINDGDSNSISGKGNVNTFTSQNGKKYRLQSLDEFFSDIPERKSKPRKIIKVVEESSDEDEDESEESSDDDEYSDSSLGTSSSGTSSSHLEL
notes: Apl6, β3-subunit of the yeast AP-3 complex; ear domain aa 631–809

Experiments:
[1] = molecular target: GST-Chs3(aa1-38)-Vam3(TMD) (not stated | yeast) (UniProt P29465); test: liposome flotation assay; proteoliposomes (Golgi-mimicking lipid mix) carrying a total of 1 μM cargo, incubated with purified AP-1 or AP-3 complex, floated on a sucrose step gradient; top fraction TCA-precipitated, SDS-PAGE, band of Apl4 or Apl5 quantified as percent of load; in Fig. 6E without PIPs or Arf1, in Fig. 6D also with Arf1 and PI3P or PI4P; 150 mM NaCl, 20 mM HEPES/NaOH pH 7.4, 1 mM MgCl2, 10 % glycerol, 60 min 4 °C
[2] = molecular target: Vam3 (yeast vacuolar SNARE, AP-3 cargo with dileucine motif) (yeast) (UniProt Q12241); test: as above
[3] = molecular target: N-myristoylated Arf1, loaded with GTP or GTPγS by Sec7ΔC (UniProt P11076); test: liposome flotation assay; empty liposomes (Golgi-mimicking lipid mix, with or without PI3P or PI4P) incubated with increasing Arf1, Sec7 GEF and GTP, then purified AP-1 or AP-3 complex; floated on a sucrose step gradient; band of Apl4 or Apl5 in the top fraction quantified
[4] = molecular target: T1, full-length yeast AP-3 complex (S. cerevisiae, UniProt Q08951 1-932; P46682 1-809; P38153 1-483; P47064 1-194); test: liposome flotation assay; proteoliposomes (Golgi-mimicking lipid mix) carrying a total of 1 μM cargo, incubated with purified AP-1 or AP-3 complex, floated on a sucrose step gradient; top fraction TCA-precipitated, SDS-PAGE, band of Apl4 or Apl5 quantified as percent of load; in Fig. 6E without PIPs or Arf1, in Fig. 6D also with Arf1 and PI3P or PI4P; 150 mM NaCl, 20 mM HEPES/NaOH pH 7.4, 1 mM MgCl2, 10 % glycerol, …; conditions: both partners purified
T1 construct: Apl5, δ-subunit of the yeast AP-3 complex; ear domain aa 639–932; Apl6, β3-subunit of the yeast AP-3 complex; ear domain aa 631–809; Apm3, μ3-subunit of the yeast AP-3 complex; Aps3, σ-subunit of the yeast AP-3 complex; Heterotetramer with apparent equimolar stoichiometry, about 300 kDa; also called adapter protein complex 3; copies: + + +

[5] = molecular target: T2, Apl5 (δ-subunit of yeast AP-3) with C-terminal 3xFLAG-tag (S. cerevisiae, UniProt Q08951 1-932); test: cross-linking; 200 μg of purified AP-3 complex, DSSO 0.5 mM added twice, 20 min each at room temperature, quenched with Tris; trypsin, SCX, LC/MS (XlinkX, 1% FDR); conditions: both partners purified
T2 construct: Apl5, δ-subunit of the yeast AP-3 complex; ear domain aa 639–932; also called δ-adaptin; not shown: 3xFLAG, C-terminal, kept
T2 sequence (looked up): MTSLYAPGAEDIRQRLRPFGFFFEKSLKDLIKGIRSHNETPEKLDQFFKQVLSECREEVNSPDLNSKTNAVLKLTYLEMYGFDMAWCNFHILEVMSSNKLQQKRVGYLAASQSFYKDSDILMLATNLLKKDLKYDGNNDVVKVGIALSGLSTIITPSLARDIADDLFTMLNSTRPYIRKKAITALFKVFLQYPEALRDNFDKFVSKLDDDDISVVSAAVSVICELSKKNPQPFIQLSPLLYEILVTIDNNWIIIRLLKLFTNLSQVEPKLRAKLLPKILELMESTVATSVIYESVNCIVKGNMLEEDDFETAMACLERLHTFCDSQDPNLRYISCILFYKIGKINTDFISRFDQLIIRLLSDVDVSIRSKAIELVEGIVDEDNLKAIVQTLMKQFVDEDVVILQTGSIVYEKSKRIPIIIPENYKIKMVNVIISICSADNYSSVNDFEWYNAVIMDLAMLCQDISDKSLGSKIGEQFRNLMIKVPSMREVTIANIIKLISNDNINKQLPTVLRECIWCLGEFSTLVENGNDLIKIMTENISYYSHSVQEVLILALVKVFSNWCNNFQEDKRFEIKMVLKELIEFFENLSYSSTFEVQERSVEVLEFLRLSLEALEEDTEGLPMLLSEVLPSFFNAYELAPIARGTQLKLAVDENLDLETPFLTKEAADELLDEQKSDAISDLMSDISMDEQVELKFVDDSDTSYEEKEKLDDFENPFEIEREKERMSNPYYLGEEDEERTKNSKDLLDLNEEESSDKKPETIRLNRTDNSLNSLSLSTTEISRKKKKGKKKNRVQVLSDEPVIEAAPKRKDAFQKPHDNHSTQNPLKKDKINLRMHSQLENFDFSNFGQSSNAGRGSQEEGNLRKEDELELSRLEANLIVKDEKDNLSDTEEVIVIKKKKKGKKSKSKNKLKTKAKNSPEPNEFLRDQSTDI

[6] = molecular target: B3; test: as above; conditions: both partners purified
[7] = molecular target: T2, Apl5 (δ-subunit of yeast AP-3) with …; test: pull-down + SEC; subunits overproduced together in yeast; captured from cleared lysate on anti-FLAG M2 affinity gel via the C-terminal 3xFLAG-tag on Apl5 (AP-3) or Apl4 (AP-1), eluted with FLAG-peptide, run on Superose 6 Increase; 150 mM NaCl, 20 mM HEPES/NaOH pH 7.4, 1.5 mM MgCl2; Coomassie staining after SDS-PAGE; conditions: partners not purified

Chain of N-myristoylated Arf1, loaded with GTP or GTPγS by Sec7ΔC (P11076 whole entry, stated change not applied): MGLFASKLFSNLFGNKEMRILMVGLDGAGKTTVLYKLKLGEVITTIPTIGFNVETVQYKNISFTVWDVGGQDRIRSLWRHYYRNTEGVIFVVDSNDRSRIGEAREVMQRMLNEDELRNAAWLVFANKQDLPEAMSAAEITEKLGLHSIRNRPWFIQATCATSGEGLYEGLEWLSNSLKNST
Chain of Vam3 (yeast vacuolar SNARE, AP-3 cargo with dileucine motif) (yeast) (Q12241 whole entry): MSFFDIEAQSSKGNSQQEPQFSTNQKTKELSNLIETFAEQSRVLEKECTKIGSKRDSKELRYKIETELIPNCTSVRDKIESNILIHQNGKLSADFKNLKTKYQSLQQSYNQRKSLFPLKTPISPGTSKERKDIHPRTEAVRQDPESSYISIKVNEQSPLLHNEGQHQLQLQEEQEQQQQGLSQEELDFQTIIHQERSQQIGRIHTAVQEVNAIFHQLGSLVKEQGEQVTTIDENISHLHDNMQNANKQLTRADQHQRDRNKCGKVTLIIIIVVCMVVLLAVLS
Chain of GST-Chs3(aa1-38)-Vam3(TMD) (not stated | yeast) (P29465 other isoform, or with tags, fused parts or gaps): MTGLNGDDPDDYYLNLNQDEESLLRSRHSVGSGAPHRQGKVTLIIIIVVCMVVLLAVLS

## full-length yeast AP-3 complex, Q08951 1-932; P46682 1-809; P38153 1-483; P47064 1-194
[1]
  percent of AP-3 recruited to proteoliposomes (without PIPs or Arf1): 25%
[2]
  percent of AP-3 recruited to proteoliposomes (Vam3 alone): > 25%
  percent of AP-3 recruited to proteoliposomes (Vam3 with low amounts of Arf1 and PIPs): 50%
  percent of AP-3 recruited to proteoliposomes (without PIPs or Arf1): 25%

## full-length yeast AP-1 complex (from UniProt Q12028 1-832)
[3]
  fold increase in membrane-bound AP-1 with both Arf1-GTP and PI3P or PI4P: 2 to 3 fold
  percent of the complex bound to liposomes with Arf1-GTP (no PIPs): 10%

B1: Nyv1 (yeast SNARE, AP-3 cargo with Yxxφ motif) (natural protein, UniProt Q12255 1-253, looked up)
chain: MKRFNVSYVEVIKNGETISSCFQPFQKNENYGTITSANEQITPVIFHNLIMDMVLPKVVPIKGNKVTKMSMNLIDGFDCFYSTDDHDPKTVYVCFTLVDMPKILPIRILSGLQEYESNATNELLSSHVGQILDSFHEELVEYRNQTLNSSGNGQSSNGNGQNTISDIGDATEDQIKDVIQIMNDNIDKFLERQERVSLLVDKTSQLNSSSNKFRRKAVNIKEIMWWQKVKNITLLTFTIILFVSAAFMFFYLW
notes: Nyv1, yeast SNARE; source: reconstituted into proteoliposomes
[4]
  binding result: binds

B2: Aps3 (σ-subunit of yeast AP-3) (natural protein, S. cerevisiae, UniProt P47064 1-194, looked up)
chain: MIHAVLIFNKKCQPRLVKFYTPVDLPKQKLLLEQVYELISQRNSDFQSSFLVTPPSLLLSNENNNDEVNNEDIQIIYKNYATLYFTFIVDDQESELAILDLIQTFVESLDRCFTEVNELDLIFNWQTLESVLEEIVQGGMVIETNVNRIVASVDELNKAAESTDSKIGRLTSTGFGSALQAFAQGGFAQWATGQ
notes: Aps3, σ-subunit of the yeast AP-3 complex
[5]
  binding result: binds
[6]
  binding result: binds

## B3
[7]
  binding result: binds

B4: Apm3 (μ3-subunit of yeast AP-3) (natural protein, S. cerevisiae, UniProt P38153 1-483, looked up)
chain: MYLSFYITDTKNKLIFQYLLGATAPSFKHLWTRVQSTCPQLLEDSSSDDYLDHSMVGRDLEVYKYFSVINKLNYWCLASTSKSKGPLDCFTFLETIDRILLEYFDKDKLSIKKIVNNYDRISLIFNCCVEAGEPNVSDMLYVNKIKEAVPERSDLSKFISSTAHNLQQAVQLPQQRQQQLQQNQISRGSNSLIENEEIVPWRTSRASKHENNELYVDLLETFHVVFEKKKSHLRLLTGSIHGIVDVRSYLNDNPLVAVKLNTMGNDIGIPSLHDCVEINDGVFSPSNITFIPPDGKFRLLEYSVDLSSQVKQSGVRMNSIGLMSLHFQNGLGKDSDEFELSLNIENFKKVSQVDDLKIDLQFNVENADPNEIAYKIKILRNTHGRFENSIIMGQGQWIFDKSTATGTVPVLRGCIEYENTGPNFTKKVDLQTVSLEYSYIGQSASGIYVEAIDIVSGLTIGKNTKLYKGAKYKTQTGNFQVRL
notes: Apm3, μ3-subunit of the yeast AP-3 complex; N-terminal domain aa 1–138, linker aa 139–211
[6]
  binding result: binds
[7]
  binding result: binds
